In patent publication US6225121:

Tested on: T1, Minos transposase (Minos-2) (Drosophila hydei)
T1 sequence: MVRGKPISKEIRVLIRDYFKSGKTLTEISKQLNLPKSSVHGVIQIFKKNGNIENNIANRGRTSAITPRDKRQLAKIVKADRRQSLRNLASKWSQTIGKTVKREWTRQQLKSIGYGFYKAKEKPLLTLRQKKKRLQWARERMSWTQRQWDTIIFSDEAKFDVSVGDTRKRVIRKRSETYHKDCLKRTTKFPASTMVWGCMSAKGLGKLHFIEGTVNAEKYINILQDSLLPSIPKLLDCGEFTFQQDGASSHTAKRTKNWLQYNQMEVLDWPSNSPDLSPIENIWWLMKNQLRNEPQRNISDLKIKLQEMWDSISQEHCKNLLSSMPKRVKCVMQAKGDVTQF
Assay: cell_activity
Conditions: HeLa stable transfectants vs transposon alone, experiment 1 (18-fold and 14.5-fold in experiments 2 and 3); source Minos copy of helper not stated; binding not …

For “Minos transposon with both terminal inverted repeats, neo cargo (pMiLRneo)”, the activity was 19 fold.
